According to article PMC10855902 (International Journal of Molecular Sciences, 2024):

Legend:
Details in all cases: both partners purified
[1] = molecular target: T1, Recombinant human EGFR protein (Active) (ab155639) (human, UniProt P00533 25-645, labelled with RED-tris-NTA 2nd Generation dye); test: MST; RED-tris-NTA-labelled EGFR 25 nM, ligand in a 16-step 1:1 dilution series in PBS-T, 30 min at room temperature; assay concentration of the ligand 5 mM
T1 construct: epidermal growth factor receptor (EGFR, ErbB-1), human, recombinant; also called EGF receptor; ErbB-1; source: bought: Abcam (ab155639), recombinant

[2] = molecular target: T1, Recombinant human EGFR protein (Active) …; test: MST; RED-tris-NTA-labelled EGFR 25 nM, ligand in a 16-step 1:1 dilution series in PBS-T, 30 min at room temperature; assay concentration of the ligand 10 mM
[3] = molecular target: T1, Recombinant human EGFR protein (Active) …; test: MST; RED-tris-NTA-labelled EGFR 25 nM, ligand in a 16-step 1:1 dilution series in PBS-T, 30 min at room temperature; assay concentration of the ligand 50 μM
[4] = molecular target: T1, Recombinant human EGFR protein (Active) …; test: MST; RED-tris-NTA-labelled EGFR 25 nM, ligand in a 16-step 1:1 dilution series in PBS-T, 30 min at room temperature; assay concentration of the ligand 100 μM
[5] = molecular target: T1, Recombinant human EGFR protein (Active) …; test: MST; RED-tris-NTA-labelled EGFR 25 nM, ligand in a 16-step 1:1 dilution series in PBS-T, 30 min at room temperature; assay concentration of the ligand 2.5 mM
[6] = molecular target: T1, Recombinant human EGFR protein (Active) …; test: MST; RED-tris-NTA-labelled EGFR 25 nM, ligand in a 16-step 1:1 dilution series in PBS-T, 30 min at room temperature; assay concentration of the ligand 250 μM
[7] = molecular target: T1, Recombinant human EGFR protein (Active) …; test: MST; RED-tris-NTA-labelled EGFR 25 nM, ligand in a 16-step 1:1 dilution series in PBS-T, 30 min at room temperature; assay concentration of the ligand 6.02 mM
[8] = molecular target: T1, Recombinant human EGFR protein (Active) …; test: MST; RED-tris-NTA-labelled EGFR 25 nM, ligand in a 16-step 1:1 dilution series in PBS-T, 30 min at room temperature; assay concentration of the ligand 1 mM
[9] = molecular target: T1, Recombinant human EGFR protein (Active) …; test: MST; RED-tris-NTA-labelled EGFR 25 nM, ligand in a 16-step 1:1 dilution series in PBS-T, 30 min at room temperature; assay concentration of the ligand 3 mM
[10] = molecular target: T1, Recombinant human EGFR protein (Active) …; test: MST; RED-tris-NTA-labelled EGFR 25 nM, ligand in a 16-step 1:1 dilution series in PBS-T, 30 min at room temperature; assay concentration of the ligand 463 μM

Row | Kd [1] | Kd [2] | Kd [3] | Kd [4] | Kd [5] | Kd [6] | Kd [7] | Kd [8] | Kd [9] | Kd [10] | Binder
1 | 663 µM | 533 µM | 0.0664 µM | 0.0174 µM | 431 µM | 48.4 µM | 715 µM | – | – | – | HDGYCL (EGF, human, residues 10-15; numbers count on: the mature protein; also called 10–15 EGF fragment; source: synthetic peptide (SPPS, Fmoc; crude, without preparative HPLC)) [EGF fragment 10–15 (HDGYCL)]
2 | – | – | 0.0705 µM | 8.2 µM | – | – | – | 35.9 µM | 416 µM | 21.2 µM | HDGYCLHDGVCMY (EGF, human, residues 10-22; numbers count on: the mature protein; source: synthetic peptide (SPPS, Fmoc; crude, without preparative HPLC)) [EGF fragment 10–22 (HDGYCLHDGVCMY)]
